Experimental data reported in publication PMC6821933, “IMP-68, a Novel IMP-Type Metallo-β-Lactamase in Imipenem-Susceptible Klebsiella pneumoniae” (mSphere, 2019).

Legend:
[1] = test system: T1, IMP-11; assay: spectrophotometric initial hydrolysis rates, […] nm, Michaelis-Menten; type: biochemical; conditions: 50 mM sodium phosphate pH 7.0, 50 μM ZnCl2, 24 ± 1 °C
T1 construct: gene blaIMP-11; signal peptide (first 19 aa) removed; His tag cut off with PreScission protease; expressed in E. coli Rosetta II

[2] = test system: T1, IMP-11; assay: as above; type: biochemical; conditions: 50 mM sodium phosphate pH 7.0, 50 μM ZnCl2, 24 ± 1 °C; remark: listed apart in the source
[3] = test system: T1, IMP-11; assay: as above; type: biochemical; conditions: 50 mM sodium phosphate pH 7.0, 50 μM ZnCl2, 24 ± 1 °C; remark: listed apart in the source
[4] = test system: CC1(C)S[C@@H]2[C@H](NC(=O)[C@H](N)c3ccccc3)C(=O)N2[C@H]1C(=O)O; assay: purified protein; type: biochemical, Klebsiella pneumoniae; conditions: 50 mM sodium phosphate pH 7.0, 50 μM ZnCl2, 24 ± 1 °C, 24.0 °C
[5] = test system: C[C@@H](O)[C@H]1C(=O)N2C(C(=O)O)=C(SCCN=CN)C[C@H]12; assay: purified protein; type: biochemical, Klebsiella pneumoniae; conditions: 50 mM sodium phosphate pH 7.0, 50 μM ZnCl2, 24 ± 1 °C, 24.0 °C
[6] = test system: CC(C)(O/N=C(\C(=O)N[C@@H]1C(=O)N2C(C(=O)[O-])=C(C[n+]3ccccc3)CS[C@H]12)c1csc(N)n1)C(=O)O; assay: purified protein; type: biochemical, Klebsiella pneumoniae; conditions: 50 mM sodium phosphate pH 7.0, 50 μM ZnCl2, 24 ± 1 °C, 24.0 °C
[7] = test system: CO/N=C(\C(=O)N[C@@H]1C(=O)N2C(C(=O)O)=C(COC(C)=O)CS[C@H]12)c1csc(N)n1; assay: purified protein; type: biochemical, Klebsiella pneumoniae; conditions: 50 mM sodium phosphate pH 7.0, 50 μM ZnCl2, 24 ± 1 °C, 24.0 °C
[8] = test system: C[C@@H](O)[C@H]1C(=O)N2C(C(=O)O)=C(S[C@@H]3CN[C@H](C(=O)N(C)C)C3)[C@H](C)[C@H]12; assay: purified protein; type: biochemical, Klebsiella pneumoniae; conditions: 50 mM sodium phosphate pH 7.0, 50 μM ZnCl2, 24 ± 1 °C, 24.0 °C

CC1(C)S[C@@H]2[C@H](NC(=O)[C@H](N)c3ccccc3)C(=O)N2[C@H]1C(=O)O [Ampicillin]
Km [1]: 830 ± 248 µM

CO/N=C(\C(=O)N[C@@H]1C(=O)N2C(C(=O)O)=C(COC(C)=O)CS[C@H]12)c1csc(N)n1 [Cefotaxime]
Km [2]: 11.8 ± 2.2 µM

CC(C)(O/N=C(\C(=O)N[C@@H]1C(=O)N2C(C(=O)[O-])=C(C[n+]3ccccc3)CS[C@H]12)c1csc(N)n1)C(=O)O [Ceftazidime]
Km [2]: 232 ± 18.9 µM

C[C@@H](O)[C@H]1C(=O)N2C(C(=O)O)=C(SCCN=CN)C[C@H]12 [Imipenem]
Km [3]: 41 ± 18.4 µM

C[C@@H](O)[C@H]1C(=O)N2C(C(=O)O)=C(S[C@@H]3CN[C@H](C(=O)N(C)C)C3)[C@H](C)[C@H]12 [Meropenem]
Km [3]: 14.8 ± 2.8 µM

IMP-68 (Klebsiella pneumoniae)
Km [4]: 465 ± 200 µM
kcat [4]: 1.7 ± 0.44 s⁻¹
kcat/Km [4]: 3700 M⁻¹ s⁻¹
Km [5]: 347 ± 52.2 µM
kcat [5]: 36.7 ± 7.8 s⁻¹
kcat/Km [5]: 110000 M⁻¹ s⁻¹
Km [6]: 326 ± 131 µM
kcat [6]: 3.9 ± 2.1 s⁻¹
kcat/Km [6]: 12000 M⁻¹ s⁻¹
Km [7]: 10.3 ± 2.3 µM
kcat [7]: 25.7 ± 1.3 s⁻¹
kcat/Km [7]: 2.5e+06 M⁻¹ s⁻¹
Km [8]: 10.1 ± 0.94 µM
kcat [8]: 9.7 ± 1.7 s⁻¹
kcat/Km [8]: 890000 M⁻¹ s⁻¹
